From patent US20050158323A1, “Methods of killing tumor cells by targeting internal antigens exposed on apoptotic tumor cells” (Vaccinex, Inc., priority 2003, published 2005)

T1: C35 protein (Homo sapiens, UniProt Q9BRT3)
T1 sequence (Q9BRT3 1-115): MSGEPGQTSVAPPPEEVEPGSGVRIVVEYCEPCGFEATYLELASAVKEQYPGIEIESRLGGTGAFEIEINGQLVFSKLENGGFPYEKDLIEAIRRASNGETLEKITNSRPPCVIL

T2: C35 on surface membrane of 21MT1 breast tumor cells (Homo sapiens, UniProt Q9BRT3)
T2 construct: 21MT1, derived from breast carcinoma, naturally expresses high levels of C35; endogenous in cells; host or cells: 21MT1 breast tumor cells
T2 sequence (Q9BRT3 1-115): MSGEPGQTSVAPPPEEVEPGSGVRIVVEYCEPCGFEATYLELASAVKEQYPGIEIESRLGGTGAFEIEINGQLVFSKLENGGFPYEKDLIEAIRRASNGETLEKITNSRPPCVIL

T3: C35 on surface membrane of breast tumor cells that express the C35 tumor antigen (Homo sapiens, UniProt Q9BRT3)
T3 construct: A line of continuously growing breast tumor cells that express the C35 tumor antigen; endogenous in cells
T3 sequence (Q9BRT3 1-115): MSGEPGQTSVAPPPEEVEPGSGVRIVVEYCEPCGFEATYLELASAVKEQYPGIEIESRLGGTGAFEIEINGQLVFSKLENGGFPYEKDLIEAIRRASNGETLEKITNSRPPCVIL

T4: C35 positive tumors and cell lines (Homo sapiens, UniProt Q9BRT3)
T4 construct: from tissue
T4 sequence (Q9BRT3 1-115): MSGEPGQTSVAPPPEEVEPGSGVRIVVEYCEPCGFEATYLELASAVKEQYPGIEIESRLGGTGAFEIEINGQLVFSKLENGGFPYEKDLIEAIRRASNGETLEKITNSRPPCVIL

T5: recombinant human C35 (rhC35) (Homo sapiens, UniProt Q9BRT3)
T5 construct: made in house; host or cells: E. coli
T5 sequence (Q9BRT3 1-52): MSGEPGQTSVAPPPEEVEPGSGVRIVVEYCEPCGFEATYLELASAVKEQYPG

T6: recombinant human C35 (rhC35) (Homo sapiens, UniProt Q9BRT3)
T6 construct: made in house; host or cells: E. coli
T6 sequence (Q9BRT3 1-104): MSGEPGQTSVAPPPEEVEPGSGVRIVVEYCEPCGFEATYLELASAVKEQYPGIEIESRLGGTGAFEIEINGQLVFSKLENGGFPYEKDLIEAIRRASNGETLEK

T7: recombinant human C35 (rhC35) (Homo sapiens, UniProt Q9BRT3)
T7 construct: made in house; host or cells: E. coli
T7 sequence (Q9BRT3 1-115): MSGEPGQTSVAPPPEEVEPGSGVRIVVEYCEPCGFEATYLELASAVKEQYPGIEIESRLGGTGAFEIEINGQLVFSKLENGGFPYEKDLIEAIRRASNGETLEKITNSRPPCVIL


Key:
[1] = Maximum Tolerated Dose of chemotherapy in xenograft models (Table 6); settings: mouse, in vivo, intravenous; nude mice; MTD confirmed by present inventors
From the text: Because of concerns regarding cumulative dose-limiting bone marrow toxicity when combining chemotherapy and radioimmunotherapy, it is necessary to determine the Maximum Tolerated Dose (MTD) of combination therapy and, where toxicity of the two therapeutic agents is additive, adopt strategies that will permit administration of both toxic agents. MTD is established by regulatory criteria related to the time required for platelet and white cell recovery in peripheral circulation. Such standards are familiar to those skilled in the art. In the case of murine models, an often employed surrogate definition of MTD is the maximum dose that results in an average of less than 20% weight loss or less than 10% mortality. Currently established MTD for the most common chemotherapeutic agents employed in standard clinical protocols or in animal models are shown in Tables 6 to 9, below.

[2] = biological target: T1, C35 protein; experiment: ELISA and Western Blot of hybridoma antibodies; type: binding; settings: ELISA and Western Blot assays
Experimental: (§1) Hybridoma cell lines IF2.4.1 and 1B3.6.1, specific for C35 polypeptides, were prepared using hybridoma technology. (Kohler et al., Nature 256:495 (1975); Kohler et al., Eur. J. Immunol. 6:511 (1976); Kohler et al., Eur. J. Immunol. 6:292 (1976); Hammerling et al., in: Monoclonal Antibodies and T-Cell Hybridomas, Elsevier, N.Y., pp. 571-681 (1981)). Briefly, hybridoma cell lines were generated using standard PEG fusion to the non-secreting myeloma cell line NS-1 (P3/NS1/1-AG4-1, ATCC #TIB-18) of splenocytes from BALB/c mice immunized with syngeneic BCA34 fibroblast tumor cells transduced to overexpress C35. Following PEG fusion to NS-1, the hybridomas were grown in methylcellulose semi-solid media. Approximately 2 weeks later, hybridoma colonies were isolated into 96 well plates and individual supernatants were tested for reactivity with C35 by ELISA, Western blot, and immunohistochemistry. Positive hybridomas colonies were subcloned and screened for reactivity twice to ensure clonality. Antibodies were isolated from hybridoma supernatants by protein G affinity purification using standard methods. […] In addition, we have developed intracellular staining flow cytometry assays for quantitative analysis using antibodies from hybridoma cell line 1F2 conjugated to Alexa-647 flourochrome. Each of these antibodies is distinct, yet both are specific for C35 protein. […]

[3] = biological target: T2, C35 on surface membrane of 21MT1 breast tumor cells; experiment: C35 surface staining of breast tumor cells after radiation induced apoptosis (flow cytometry); type: cell-based; settings: 50 ng Alexa 647 conjugated antibody
Experimental: (§2) A line of continuously growing breast tumor cells that express the C35 tumor antigen was either irradiated with 300 Gy or left untreated. After continued in vitro culture for several days to allow apoptosis to develop, cells were harvested, washed and stained with 50 ng of 1F2 monoclonal anti-C35 antibody or a mouse IgG antibody control each conjugated to the fluorescent dye Alexa 647. Following 50 minutes incubation at 25C, cells were stained with Annexin V and propidium iodide (PI) using a standard commercial kit (Pharmingen). Cells were analyzed for staining with Annexin V, propidium iodide and Alexa 647 by flow cytometry employing standard protocols.

[4] = biological target: T1, C35 protein; experiment: Competitive binding ELISA; settings: 1F2 versus 1B3
Experimental: as §1

[5] = biological target: T3, C35 on surface membrane of breast tumor cells that express the C35 tumor antigen; experiment: C35 surface staining of breast tumor cells after mitomycin C induced apoptosis (flow cytometry); type: cell-based; settings: 50 ng Alexa 647 conjugated antibody
Experimental: as §2, with “treated” for “irradiated”, “6 ug/ml mitomycin C” for “300 Gy”, “48 hours” for “several days”

[6] = biological target: T4, C35 positive tumors and cell lines; experiment: Immunohistochemistry of formalin fixed, paraffin embedded samples; type: binding
Experimental: as §1

[7] = biological target: T5, recombinant human C35 (rhC35); experiment: Epitope localization by Western blot of Lys-C digested rhC35; type: binding; settings: Western blot, 1 μg/ml antibody
From the text: (§3) To localize the epitope specificity of 1B3 and 1F2 antibodies, recombinant human C35 (rhC35) synthesized with a 6× His tag in E. coli was digested with Lys-C endoproteinase. This enzyme cuts after lysine (K) residues in the protein sequence. […] The full sequence of rhC35, including the amino terminal 6× His tag addition is shown. Amino acid positions are numbered relative to the amino terminal methionine (M) of the native human sequence. Note that digestion at the first and third lysine followed by negatively charged residues is inefficient and some longer combination fragments may be generated. Lys-C endoproteinase was added to purified rhC35 at a […] weight ratio and incubated for 18 hours at 37° C. in 25 mM Tris, pH 8.0. The digest was ethanol precipitated and resolubilized in reducing Tricine sample buffer. After heating 5 minutes at 100° C., samples were separated by electrophoresis on a 16% Tricine gel (Invitrogen). Peptides were transferred to PVDF membranes and the blots depicted in FIG. 10 were either stained with Coomassie blue (lanes 1-3 of both left and right panels) to detect all peptides or processed with one of the following: 1 μg/ml of the murine 1F2 anti-C35 antibody followed by alkaline phosphatase conjugated goat anti-mouse antibody (lane 4 of left panel); 1 μg/ml of the 1B3 anti-C35 immunoglobulin variable regions linked to human constant regions (MAb11) followed by alkaline phosphatase conjugated goat anti-human antibody (lane 5 of left panel); or anti-6× His tag mouse antibody (Amersham) followed by alkaline phosphatase conjugated goat anti-mouse antibody (lane 4 and 5 of right panel). BCIP/NBT substrate was added and developed to detect the secondary reagents. Molecular weight markers are indicated in the flanking lanes of both panels.
(§4) In FIG. 10, the indicated band A migrates at the position of undigested rhC35. Note that band B stains with 1F2 but not MAb11 (1B3) anti-C35 antibody while band C stains with neither 1F2 nor MAb11 (1B3) antibody. Since bands B and C both do stain with anti-6× His tag antibody to the 6× His tag at the amino terminus of rhC35, it may be concluded that both fragments lack C-terminal peptide fragments. […] This epitope is not required for staining with 1F2.

[8] = biological target: T6, recombinant human C35 (rhC35); experiment: as above; type: binding; settings: Western blot, 1 μg/ml antibody; remark: listed apart in the source
From the text: as §3, §4

[9] = biological target: T7, recombinant human C35 (rhC35); experiment: as above; type: binding; settings: native C35 sequence numbering; 1 μg/ml antibody
From the text: as §3, §4

[10] = untreated live cells (PI negative), Annexin V negative

differential staining versus isotype control antibody [3, 10] | differential staining versus isotype control antibody [5, 10] | staining of approximately 8 kDa band C (in addition lacks residues 53-104) [7] | staining of approximately 15 kDa band B (lacks C35 residues 105-115) [8] | epitope specificity [9] | Molecule | MTD [1] | binding to recombinant C35 protein [2] | differential staining versus isotype control antibody ([3]; irradiated (300 Gy) tumor cells, viable (PI negative), undergoing apoptosis (Annexin V positive)) | epitope comparison by competition [4] | differential staining versus isotype control antibody ([5]; 6 ug/ml mitomycin C, 48 hours, viable (PI negative), undergoing apoptosis (Annexin V positive)) | immunohistochemical staining [6]
– | – | – | – | – | COc1cccc2c1C(=O)c1c(O)c3c(c(O)c1C2=O)C[C@@](O)(C(=O)CO)C[C@@H]3O[C@H]1C[C@H](N)[C@H](O)[C@H](C)O1 [Adriamycin, Doxorubicin] | 10 mg/kg | – | – | – | – | –
absence of differential staining | absence of differential staining | does not react | stains | residues 53-104 | 1F2: mouse monoclonal anti-C35 antibody from hybridoma 1F2, gamma1 isotype, kappa light chain; VH SEQ ID NO:4, VK SEQ ID NO:6 (antibody, listed as Mus sp., V domains shown) VH: DVQLQESGPGLVKPSQSLSLTCSVTGYSITSGYFWNWIRQFPGNKLEWMGYISYDGSNNSNPSLKNRISFTRDTSKNQFFLKFNSVTTDDSAAYYCTRGTTGFAYWGQGTLVTVSA VL: QIVLTQSPAIMSASPGEKVTISCSASSSVSYMNWYQQKPGSSPKPWIYHTSNLASGVPARFSGSGSGTSYSLTISSMEAEDAATYYCQQYHSYPPTFGGGTKLEIK | – | specifically bind recombinant C35 protein | clearly differentially stained | bind different epitopes of the C35 protein | clearly differentially stained | specifically stain formalin fixed, paraffin embedded C35 positive tumors and cell lines
